Laboratory results published in patent US20190376053A1 (BOARD OF TRUSTEES OF THE UNIVERSITY OF ARKANSAS, published 2019).

Assays:
[1] = target: rat collagen (collagen type I) (rat, UniProt P02454 152-1207; P02466 86-1125); assay: cell-based or functional assay
[2] = target: T1, collagen fibril (porcine skin fiber, Nippi, Inc) (porcine); assay: collagen fibril binding assay (spin column, SDS-PAGE of the unbound protein, Scatchard plot)
T1 construct: also called collagen fiber; insoluble collagen fibril

Chain of rat collagen (collagen type I) (P02454 152-1207 limits assumed, chain 1 of 2): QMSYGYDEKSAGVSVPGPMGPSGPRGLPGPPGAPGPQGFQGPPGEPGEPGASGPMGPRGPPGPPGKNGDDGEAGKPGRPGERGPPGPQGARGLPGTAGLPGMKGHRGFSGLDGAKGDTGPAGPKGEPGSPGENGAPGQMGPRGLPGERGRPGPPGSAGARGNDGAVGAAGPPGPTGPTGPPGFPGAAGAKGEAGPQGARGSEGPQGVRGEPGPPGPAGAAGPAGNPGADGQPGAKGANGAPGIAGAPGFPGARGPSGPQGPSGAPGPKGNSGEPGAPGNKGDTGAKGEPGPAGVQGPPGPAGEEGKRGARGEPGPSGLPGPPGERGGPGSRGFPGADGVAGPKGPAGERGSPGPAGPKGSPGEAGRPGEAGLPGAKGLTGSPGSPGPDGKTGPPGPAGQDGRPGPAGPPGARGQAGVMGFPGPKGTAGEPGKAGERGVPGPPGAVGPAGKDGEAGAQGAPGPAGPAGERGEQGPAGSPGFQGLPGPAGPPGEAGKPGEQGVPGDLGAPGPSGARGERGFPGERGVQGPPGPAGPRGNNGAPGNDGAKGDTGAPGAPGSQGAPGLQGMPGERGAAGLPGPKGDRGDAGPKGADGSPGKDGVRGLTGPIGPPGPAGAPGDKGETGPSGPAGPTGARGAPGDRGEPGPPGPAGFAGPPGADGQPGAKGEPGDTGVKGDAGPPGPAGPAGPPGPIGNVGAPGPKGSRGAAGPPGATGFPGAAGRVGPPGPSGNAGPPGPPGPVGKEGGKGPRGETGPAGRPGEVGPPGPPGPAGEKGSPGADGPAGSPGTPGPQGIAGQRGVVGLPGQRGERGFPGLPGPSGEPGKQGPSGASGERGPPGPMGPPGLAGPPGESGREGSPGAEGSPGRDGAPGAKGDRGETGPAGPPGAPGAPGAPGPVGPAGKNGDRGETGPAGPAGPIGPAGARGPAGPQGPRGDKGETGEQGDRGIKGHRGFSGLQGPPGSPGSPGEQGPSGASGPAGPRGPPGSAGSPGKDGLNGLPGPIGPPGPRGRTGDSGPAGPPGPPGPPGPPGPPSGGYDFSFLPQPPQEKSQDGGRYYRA
Chain of rat collagen (collagen type I) (P02466 86-1125 limits assumed, chain 2 of 2): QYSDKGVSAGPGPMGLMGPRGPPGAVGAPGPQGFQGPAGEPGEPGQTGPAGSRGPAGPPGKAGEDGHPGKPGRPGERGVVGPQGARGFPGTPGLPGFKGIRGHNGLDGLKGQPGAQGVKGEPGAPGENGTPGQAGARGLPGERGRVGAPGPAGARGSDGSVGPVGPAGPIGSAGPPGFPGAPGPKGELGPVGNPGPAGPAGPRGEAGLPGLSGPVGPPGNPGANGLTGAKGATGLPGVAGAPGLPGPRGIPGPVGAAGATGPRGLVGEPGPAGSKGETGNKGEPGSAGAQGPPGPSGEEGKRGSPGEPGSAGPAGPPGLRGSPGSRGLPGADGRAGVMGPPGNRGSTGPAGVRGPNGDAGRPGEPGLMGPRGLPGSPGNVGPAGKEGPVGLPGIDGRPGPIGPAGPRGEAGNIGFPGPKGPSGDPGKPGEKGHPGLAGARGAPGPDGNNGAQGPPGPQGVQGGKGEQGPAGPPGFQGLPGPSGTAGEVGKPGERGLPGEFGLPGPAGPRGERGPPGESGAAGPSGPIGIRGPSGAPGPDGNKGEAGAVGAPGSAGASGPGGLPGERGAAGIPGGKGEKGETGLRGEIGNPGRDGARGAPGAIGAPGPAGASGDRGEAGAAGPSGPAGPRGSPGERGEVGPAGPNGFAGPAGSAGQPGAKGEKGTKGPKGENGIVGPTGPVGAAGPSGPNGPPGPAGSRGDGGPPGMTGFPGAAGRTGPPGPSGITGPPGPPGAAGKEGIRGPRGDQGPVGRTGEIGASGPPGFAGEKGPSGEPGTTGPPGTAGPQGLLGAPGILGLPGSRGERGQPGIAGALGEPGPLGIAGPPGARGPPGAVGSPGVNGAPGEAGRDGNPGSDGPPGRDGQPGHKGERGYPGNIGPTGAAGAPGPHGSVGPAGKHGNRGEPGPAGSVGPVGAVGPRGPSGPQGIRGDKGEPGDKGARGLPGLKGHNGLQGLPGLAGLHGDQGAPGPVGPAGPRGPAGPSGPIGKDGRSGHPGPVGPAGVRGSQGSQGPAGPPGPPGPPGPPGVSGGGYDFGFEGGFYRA

B1: tandem collagen-binding domain (s3a-s3b) derived from Clostridium histolyticum class I collagenase ColG (other)
chain: PITKEMEPNDDIKEANGPIVEGVTVKGDLNGSDDADTFYFDVKEDGDVTIELPYSGSSNFTWLVYKEGDDQNHIASGIDKNNSKVGTFKSTKGRHYVFIYKHDSASNISYSLNIKGLGNEKLKEKENNDSSDKATVIPNFNTTMQGSLLGDDSRDYYSFEVKEEGEVNIELDKKDEFGVTWTLHPESNINDRITYGQVDGNKVSNKVKLRPGKYYLLVYKYSGSGNYELRVNK
- collagen fibril thickness against the collagen control, 5:1 ratio [1]: 2 % less
- fibril growth, absorption, higher ratios of tandem CBD [1]: 0.005
- fibril growth, absorption, lower ratios of CBD [1]: 0.0217

B2: collagen-binding domain s3b derived from Clostridium histolyticum class I collagenase ColG (other)
chain: GNEKLKEKENNDSSDKATVIPNFNTTMQGSLLGDDSRDYYSFEVKEEGEVNIELDKKDEFGVTWTLHPESNINDRITYGQVDGNKVSNKVKLRPGKYYLLVYKYSGSGNYELRVNK
notes: domain: s3b; also called ColGS3b; CBD (s3b)
- Kd [2]: ~100 µM
